Measured values as given in US12441790B2, “Binding proteins to the human thrombin receptor, PAR4” (MONASH UNIVERSITY, priority 2017, dated 2025).

How the values were obtained:
human platelets = experiment: Thrombin-induced platelet aggregation assay; type: cell-based
Protocol: Platelet aggregation was measured by light transmission aggregometry in a 96-well plate format. Human isolated platelets (2×10^8/ml) were pre-treated for 10 mins at 37° C. with dimethylsulfoxide (DMSO) (1% v/v), the PAR1 antagonist vorapaxar (90 nM), the anti-PAR4 antibody 5RC3 (20-100 μg/ml), or a combination of vorapaxar and 5RC3. Platelets were treated with one of thrombin (0.1 U/ml) and aggregation was analysed at 37° C. in a FLUOstar OPTIMA plate reader (BMG Labtech) using a 595 nm excitation filter, for a period of 50 min (10 read cycles with 5 min double orbital shake period between each read). Optical density was normalised against the blank (maximum) and unstimulated platelets (minimum) and expressed as % maximum.
Human isolated platelets of different PAR4 variants were assessed for their responses to PAR4 agonists.
(§1) The binding of five anti-PAR4 monoclonal antibodies to human platelets was examined by flow cytometry.

human isolated platelets = experiment: Binding to human platelets by flow cytometry; conditions: 10 μg/ml, against isotype control
Protocol: Human or mouse washed platelets (5×10^7/mL) were incubated with anti-PAR4 antibody (0.1 mg/ml) for 30 mins at 37° C. and then fixed with paraformaldehyde 1% v/v final concentration). The suspension was then centrifuged at 1000×g for 2 min to obtain the platelet pellet, which was then resuspended in modified Tyrode's buffer (12 mM NaHCO3, 10 mM HEPES pH 7.4, 137 mM NaCl, 2.7 mM KCl, 5.5 mM D-glucose, 1 mM CaCl2) containing a 1:50 dilution of an FITC-conjugated […] IgG. After 30 mins at room temperature, the samples were centrifuged again, and the platelet pellet was resuspended in modified Tyrode's buffer an analysed by use of a flow cytometer (FACSCalibur, BD Biosciences).
Clone 5A.RC3 was tested for binding to isolated human platelets in vitro. Analysis of binding was determined using flow cytometry. Isolated platelets were incubated with either mouse IgG1 (isotype control) or 5A.RC3 and tested for binding to PAR4. CD41a which is a marker expressed on platelets was used as a positive control.
as §1

[1] = target: T1, hPAR4-biotinylated peptide (Homo sapiens, UniProt Q96RI0); experiment: SA chip biotin peptide SPR (Biacore, streptavidin capture); type: binding
T1 construct: host or cells: synthetic peptide
Protocol: Biacore analysis was performed on a Biacore T200 using two different methods either an anti-mouse Fc capture approach or using a similar method as described above using the ProteoOn system.
A series S sensor chip SA was conditioned using the manufacturers recommended protocol and immobilised with 1 ug/ml hPAR4-biotinylated peptide on FC2 and hPAR1-biotinylated peptide as a control onto FC1. […] Blank injections of buffer alone were also performed. All injections were performed in duplicate and in a random order. After each capture/injection/dissociation cycle the chip was regenerated with a 30 second injection of 0.1M Glycine pH2.0.
For the mAb capture method low levels of ligand mAb and analyte hPAR4 were used in an attempt to produce a 1:1 binding interaction, this method has been used successfully to measure kinetics and affinity KD's (Kamat V and Rafique A (2017) Analytical Biochemistry 530:75-86), despite using a whole IgG.
The kinetics of the binding interaction between the mAbs and hPAR4 was measured using Surface Plasmon Resonance (SPR; Biacore) by two different methods: 1. Anti-mouse Fc mAb capture method and 2. Streptavidin (SA) chip to capture biotinylated peptide. The ka(on) rate and kd(off) rates and KD were measured and fitted to a Langmuir model using the Biacore evaluation software.

human whole blood = experiment: Human whole blood thrombosis assay; type: cell-based
Protocol: Human whole blood collected in citrate (3.2%) was pre-incubated for 15 min at 37° C. with PE-conjugated anti-CD9 antibody (4 μg/mL) and an anti-fibrin antibody (5 μg/ml), and one of hirudin (800 U/ml), DMSO (1% v/v), PAR-1 antagonist E5555 (1 μM), anti-PAR4 antibody (0.2 mg/ml) or the combination of both PAR inhibitors. Whole blood was re-calcified with 5-7.5 mM CaCl2 (final concentration) to initiate coagulation, and drawn over glass microslides (1×0.1 mm internal diameter) coated with bovine type 1 collagen (250 μg/ml) at a fixed flow rate of 0.06 ml/min, resulting in a wall shear rate of 600 s^−1. Dual colour confocal fluorescence images were recorded at 488 and 561 nm excitation, collected through a 40× water immersion objective. Confocal z-stacks were continuously recorded for 2 min before modified, calcium-free Tyrode's buffer was flowed over the thrombi and z-stacks encompassing the entire height of the thrombus field were recorded over a period of 10 min. Platelet thrombi were defined using anti-CD9-PE and fibrin volume was quantified using average fluorescence of the thrombus field. Data were normalised against the hirudin baseline and expressed as a percentage of the control.
Thrombosis parameters including platelet deposition, thrombin activity, fibrin volume and ratio of fibrin per thrombus were measured in real-time over a period of 10 minutes in a whole blood thrombosis assay as described herein under conditions of coagulation.
Platelet deposition (PE-conjugated anti-CD9), thrombin activity (FRET-based thrombin probe), fibrin volume (Dylight650-conjugated anti-fibrin antibody) and the ratio of fibrin per thrombus at the 10 minute end-point is shown in FIG. 10A by confocal microscopy (to allow for volume measurements to be taken) using a Nikon Air with a 25× lens and 2× digital magnification.
The volume of human thrombi formed after 3 min was quantified by confocal microscopy in an ex vivo human whole blood thrombosis assay.

[2] = 10 minute endpoint, 5A.RC3 100 μg/ml, hirudin 800 U/ml

T1 sequence (Q96RI0 with tags, fused parts or gaps limits assumed): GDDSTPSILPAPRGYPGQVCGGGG

B1: 5A.RC3: anti-PAR4 monoclonal antibody, IgG2a/K, VH SEQ ID NO:11 and VL SEQ ID NO:12 (antibody, V domains shown)
VH: QVQLVESGGGVVQPGRSLRLSCAASGFTLSNYGMHWVRQAPGKGLEWVSVIWYDGSNKHYADSVKGRFTISRDNSKNTLYLQMNSLRAEDTAVYYCARESIVEVLPPFDYWGQGTLVTVSS
VL: KIVLTQSPGTLSLSPGERVTLSCRASQRVRNNYLAWFQQKPGQAPRLFIYGASSRATGIPDRFSGSGSGTDFIFTISRLEPEDFAVYYCQQYGNSYTFGQGTKLEIK
modifications: VH of 5A.RC3; VL of 5A.RC3
In the case of B1, the “inhibition of platelet aggregation at the highest concentration tested” value (human platelets; 0.1 U/ml thrombin) is reported as “Near maximal inhibition”, the “inhibition of thrombin-induced platelet aggregation” value (human platelets; in the presence of a PAR1 antagonist, genotypes TT, AT, AA) is reported as “inhibited in a dose dependent manner” and the “binding to PAR4 on isolated human platelets” value (human isolated platelets) is reported as “binds human PAR4 in isolated platelets”. The ka [1] was 1.32e+06 M⁻¹ s⁻¹, the kd [1] was 0.000417 s⁻¹ and the total thrombus volume (human whole blood; 100 μg/ml, thrombi formed after 3 min) was “reduced total thrombus volume”. The “ratio of fibrin per thrombus volume” value (human whole blood; 10 minute endpoint, 5A.RC3 100 μg/ml) was “significantly inhibited”, the fibrin volume (human whole blood; [2]) was “significantly inhibited” and the platelet deposition (human whole blood; [2]) was “no effect”. The thrombin activity (human whole blood; [2]) was “significantly inhibited”.
